How the values were obtained:
HeLa Kyoto [1] = test: solubility change mitosis vs G1/S (difference of NP-40 vs SDS log2 ratios) (log2 ratio difference); higher = more soluble in mitosis
HeLa Kyoto [2] = test: solubility in G1/S (NP-40 vs SDS abundance) (log2 ratio); higher = more soluble; conditions: cell cycle stage: G1/S
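For solubility change mitosis vs G1/S (difference of NP-40 vs SDS log2 ratios) in this document: synchronized HeLa Kyoto cells (double thymidine block for G1/S, nocodazole release for mitosis), protein amounts in NP-40 versus SDS lysates quantified by mass spectrometry, three biological replicates.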
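For solubility in G1/S (NP-40 vs SDS abundance) in this document: HeLa Kyoto cells arrested at G1/S by double thymidine block, proteins quantified by TMT10plex mass spectrometry in mild NP-40 versus SDS extracts, three biological replicates.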

| Substance | solubility change mitosis (log2) (HeLa Kyoto [1]) | solubility in G1/S (log2) (HeLa Kyoto [2]) |
| --- | --- | --- |
| MARTLEPLAKKIFKGVLVAELVGVFGAYFLFSKMHTSQDFRQTMSKKYPFILEVYYKSTEKSGMYGIRELDQKTWLNSKN [CEBPZOS] | -0.012 | -0.306 |
| MISAPDVVAFTKEEEYEEEPYNEPALPEEYSVPLFPFASQGANPWSKLSGAKFSRDFILISEFSEQVGPQPLLTIPNDTKVFGTFDLNYFSLRIMSVDYQASFVGHPPGSAYPKLNFVEDSKVVLGDSKEGAFAYVHHLTLYDLEARGFVRPFCMAYISADQHKIMQQFQELSAEFSRASECLKTGNRKAFAGELEKKLKDLDYTRTVLHTETEIQKKANDKGFYSSQAIEKANELASVEKSIIEHQDLLKQIRSYPHRKLKGHDLCPGEMEHIQDQASQASTTSNPDESADTDLYTCRPAYTPKLIKAKSTKCFDKKLKTLEELCDTEYFTQTLAQLSHIEHMFRGDLCYLLTSQIDRALLKQQHITNFLFEDFVEVDDRMVEKQESIPSKPSQDRPPSSSLEECPIPKVLISVGSYKSSVESVLIKMEQELGDEEYKEVEVTELSSFDPQENLDYLDMDMKGSISSGESIEVLGTEKSTSVLSKSDSQASLTVPLSPQVVRSKAVSHRTISEDSIEVLSTCPSEALIPDDFKASYPSAINEEESYPDGNEGAIRFQASISPPELGETEEGSIENTPSQIDSSCCIGKESDGQLVLPSTPAHTHSDEDGVVSSPPQRHRQKDQGFRVDFSVENANPSSRDNSCEGFPAYELDPSHLLASRDISKTSLDNYSDTTSYVSSVASTSSDRIPSAYPAGLSSDRHKKRAGQNALKFIRQYPFAHPAIYSLLSGRTLVVLGEDEAIVRKLVTALAIFVPSYGCYAKPVKHWASSPLHIMDFQKWKLIGLQRVASPAGAGTLHALSRYSRYTSILDLDNKTLRCPLYRGTLVPRLADHRTQIKRGSTYYLHVQSMLTQLCSKAFLYTFCHHLHLPTHDKETEELVASRQMSFLKLTLGLVNEDVRVVQYLAELLKLHYMQESPGTSHPMLRFDYVPSFLYKI [SMCR8] | 0.0252 | -0.0823 |
| MAAEEADVDIEGDVVAAAGAQPGSGENTASVLQKDHYLDSSWRTENGLIPWTLDNTISEENRAVIEKMLLEEEYYLSKKSQPEKVWLDQKEDDKKYMKSLQKTAKIMVHSPTKPASYSVKWTIEEKELFEQGLAKFGRRWTKISKLIGSRTVLQVKSYARQYFKNKVKCGLDKETPNQKTGHNLQVKNEDKGTKAWTPSCLRGRADPNLNAVKIEKLSDDEEVDITDEVDELSSQTPQKNSSSDLLLDFPNSKMHETNQGEFITSDSQEALFSKSSRGCLQNEKQDETLSSSEITLWTEKQSNGDKKSIELNDQKFNELIKNCNKHDGRGIIVDARQLPSPEPCEIQKNLNDNEMLFHSCQMVEESHEEEELKPPEQEIEIDRNIIQEEEKQAIPEFFEGRQAKTPERYLKIRNYILDQWEICKPKYLNKTSVRPGLKNCGDVNCIGRIHTYLELIGAINFGCEQAVYNRPQTVDKVRIRDRKDAVEAYQLAQRLQSMRTRRRRVRDPWGNWCDAKDLEGQTFEHLSAEELAKRREEEKGRPVKSLKVPRPTKSSFDPFQLIPCNFFSEEKQEPFQVKVASEALLIMDLHAHVSMAEVIGLLGGRYSEVDKVVEVCAAEPCNSLSTGLQCEMDPVSQTQASETLAVRGFSVIGWYHSHPAFDPNPSLRDIDTQAKYQSYFSRGGAKFIGMIVSPYNRNNPLPYSQITCLVISEEISPDGSYRLPYKFEVQQMLEEPQWGLVFEKTRWIIEKYRLSHSSVPMDKIFRRDSDLTCLQKLLECMRKTLSKVTNCFMAEEFLTEIENLFLSNYKSNQENGVTEENCTKELLM [MYSM1] | -0.109 | -0.108 |
| MDGTEGSAGQPGPAERSHRSSVSSVGARAADVLVYLADDTVVPLAVENLPSLSAHELHRAVREVLQLPDIALDVFALWLVSPLLEVQLKPKHQPYKLGRQWPELLLRFTSAPDDDVAMDEPFLQFRRNVFFPKRRELQIHDEEVLRLLYEEAKGNVLAARYPCDVEDCEALGALVCRVQLGPYQPGRPAACDLREKLDSFLPAHLCKRGQSLFAALRGRGARAGPGEQGLLNAYRQVQEVSSDGGCEAALGTHYRAYLLKCHELPFYGCAFFHGEVDKPAQGFLHRGGRKPVSVAISLEGVHVIDSREKHVLLGLRFQELSWDHTSPEEEEPILWLEFDGDSEGTPVNKLLKIYSKQAELMSSLIEYCIELSQAAEPAGPQDSATGSPSDPSSSLAPVQRPKLRRQGSVVSSRIQHLSTIDYVEDGKGIRRVKPKRTTSFFSRQLSLGQGSYTVVQPGDSLEQG [FRMD8] | -0.0705 | 0.248 |
| MQLEIQVALNFIISYLYNKLPRRRVNIFGEELERLLKKKYEGHWYPEKPYKGSGFRCIHIGEKVDPVIEQASKESGLDIDDVRGNLPQDLSVWIDPFEVSYQIGEKGPVKVLYVDDNNENGCELDKEIKNSFNPEAQVFMPISDPASSVSSSPSPPFGHSAAVSPTFMPRSTQPLTFTTATFAATKFGSTKMKNSGRSNKVARTSPINLGLNVNDLLKQKAISSSMHSLYGLGLGSQQQPQQQQQPAQPPPPPPPPQQQQQQKTSALSPNAKEFIFPNMQGQGSSTNGMFPGDSPLNLSPLQYSNAFDVFAAYGGLNEKSFVDGLNFSLNNMQYSNQQFQPVMAN [TOB1] | -0.114 | 0.14 |
| MAAPSLLNWRRVSSFTGPVPRARHGHRAVAIRELMIIFGGGNEGIADELHVYNTATNQWFLPAVRGDIPPGCAAHGFVCDGTRILVFGGMVEYGRYSNELYELQASRWLWKKVKPHPPPSGLPPCPRLGHSFSLYGNKCYLFGGLANESEDSNNNVPRYLNDFYELELQHGSGVVGWSIPVTKGVVPSPRESHTAVIYCKKDSGSPKMYVFGGMCGARLDDLWQLDLETMSWSKPETKGTVPLPRSLHTASVIGNKMYIFGGWVPHKGENTETSPHDCEWRCTSSFSYLNLDTTEWTTLVSDSQEDKKNSRPRPRAGHCAVAIGTRLYFWSGRDGYKKALNSQVCCKDLWYLDTEKPPAPSQVQLIKATTNSFHVKWDEVSTVEGYLLQLSTDLPYQAASSDSSAAPNMQGVRMDPHRQGSNNIVPNSINDTINSTKTEQPATKETSMKNKPDFKALTDSNAILYPSLASNASNHNSHVVDMLRKNEGPHTSANVGVLSSCLDVRTVIPETSVSSTVSSTQTMVTQQTIKTESSSTNGAVVKDETSLTTFSTKSEVDETYALPATKISRVETHATATPFSKETPSNPVATVKAGERQWCDVGIFKNNTALVSQFYLLPKGKQSISKVGNADVPDYSLLKKQDLVPGTGYRFRVAAINGCGIGPFSKISEFKTCIPGFPGAPSAVRISKNVEGIHLSWEPPTSPSGNILEYSAYLAIRTAQIQDNPSQLVFMRIYCGLKTSCIVTAGQLANAHIDYTSRPAIVFRISAKNEKGYGPATQVRWLQGNNKKAPLN [HCFC2] | -0.0821 | -0.228 |
| MALVRALVCCLLTAWHCRSGLGLPVAPAGGRNPPPAIGQFWHVTDLHLDPTYHITDDHTKVCASSKGANASNPGPFGDVLCDSPYQLILSAFDFIKNSGQEASFMIWTGDSPPHVPVPELSTDTVINVITNMTTTIQSLFPNLQVFPALGNHDYWPQDQLPVVTSKVYNAVANLWKPWLDEEAISTLRKGGFYSQKVTTNPNLRIISLNTNLYYGPNIMTLNKTDPANQFEWLESTLNNSQQNKEKVYIIAHVPVGYLPSSQNITAMREYYNEKLIDIFQKYSDVIAGQFYGHTHRDSIMVLSDKKGSPVNSLFVAPAVTPVKSVLEKQTNNPGIRLFQYDPRDYKLLDMLQYYLNLTEANLKGESIWKLEYILTQTYDIEDLQPESLYGLAKQFTILDSKQFIKYYNYFFVSYDSSVTCDKTCKAFQICAIMNLDNISYADCLKQLYIKHNY [SMPDL3A] | 0.18 | 0.322 |
| MASASARGNQDKDAHFPPPSKQSLLFCPKSKLHIHRAEISKIMRECQEESFWKRALPFSLVSMLVTQGLVYQGYLAANSRFGSLPKVALAGLLGFGLGKVSYIGVCQSKFHFFEDQLRGAGFGPQHNRHCLLTCEECKIKHGLSEKGDSQPSAS [OCIAD2] | -0.0442 | 0.0856 |
| CHD7 | 0.0296 | -0.18 |
| CHD2 | 0.389 | -1.9 |
| MSEIRKDTLKAILLELECHFTWNLLKEDIDLFEVEDTIGQQLEFLTTKSRLALYNLLAYVKHLKGQNKDALECLEQAEEIIQQEHSDKEEVRSLVTWGNYAWVYYHMDQLEEAQKYTGKIGNVCKKLSSPSNYKLECPETDCEKGWALLKFGGKYYQKAKAAFEKALEVEPDNPEFNIGYAITVYRLDDSDREGSVKSFSLGPLRKAVTLNPDNSYIKVFLALKLQDVHAEAEGEKYIEEILDQISSQPYVLRYAAKFYRRKNSWNKALELLKKALEVTPTSSFLHHQMGLCYRAQMIQIKKATHNRPKGKDKLKVDELISSAIFHFKAAMERDSMFAFAYTDLANMYAEGGQYSNAEDIFRKALRLENITDDHKHQIHYHYGRFQEFHRKSENTAIHHYLEALKVKDRSPLRTKLTSALKKLSTKRLCHNALDVQSLSALGFVYKLEGEKRQAAEYYEKAQKIDPENAEFLTALCELRLSI [IFIT5] | 0.0621 | 0.129 |
| CROCC | -0.109 | 0.091 |
| MICALL2 | -0.0133 | 0.151 |
| MYRSGERLLGSHALPAEQRDFLPLETTNNNNNHHQPGAWARRAGSSASSPPSASSSPHPSAAVPAADPADSASGSSNKRKRDNKASGGRAAGGGRADGGGVVYSGTPWKRRNYNQGVVGLHEEISDFYEYMSPRPEEEKMRMEVVNRIESVIKELWPSADVQIFGSFKTGLYLPTSDIDLVVFGKWENLPLWTLEEALRKHKVADEDSVKVLDKATVPIIKLTDSFTEVKVDISFNVQNGVRAADLIKDFTKKYPVLPYLVLVLKQFLLQRDLNEVFTGGIGSYSLFLMAVSFLQLHPREDACIPNTNYGVLLIEFFELYGRHFNYLKTGIRIKDGGSYVAKDEVQKNMLDGYRPSMLYIEDPLQPGNDVGRSSYGAMQVKQAFDYAYVVLSHAVSPIAKYYPNNETESILGRIIRVTDEVATYRDWISKQWGLKNRPEPSCNGPVSSSSATQSSSSDVDSDATPCKTPKQLLCRPSTGNRVGSQDVSLESSQAVGKMQSTQTTNTSNSTNKSQHGSARLFRSSSKGFQGTTQTSHGSLMTNKQHQGKSNNQYYHGKKRKHKRDAPLSDLCR [PAPD5] | 0.189 | -0.654 |
| MLPEAGSLWLLKLLRDIQLAQFYWPILEELNVTRPEHFDFVKPEDLDGIGMGRPAQRRLSEALKRLRSGPKSKNWVYKILGGFAPEHKEPTLPSDSPRHLPEPEGGLKCLIPEGAVCRGELLGSGCFGVVHRGLWTLPSGKSVPVAVKSLRVGPEGPMGTELGDFLREVSVMMNLEHPHVLRLHGLVLGQPLQMVMELAPLGSLHARLTAPAPTPPLLVALLCLFLRQLAGAMAYLGARGLVHRDLATRNLLLASPRTIKVADFGLVRPLGGARGRYVMGGPRPIPYAWCAPESLRHGAFSSASDVWMFGVTLWEMFSGGEEPWAGVPPYLILQRLEDRARLPRPPLCSRALYSLALRCWAPHPADRPSFSHLEGLLQEAGPSEACCVRDVTEPGALRMETGDPITVIEGSSSFHSPDSTIWKGQNGRTFKVGSFPASAVTLADAGGLPATRPVHRGTPARGDQHPGSIDGDRKKANLWDAPPARGQRRNMPLERMKGISRSLESVLSLGPRPTGGGSSPPEIRQARAVPQGPPGLPPRPPLSSSSPQPSQPSRERLPWPKRKPPHNHPMGMPGARKAAALSGGLLSDPELQRKIMEVELSVHGVTHQECQTALGATGGDVVSAIRNLKVDQLFHLSSRSRADCWRILEHYQWDLSAASRYVLARP [TNK1] | -0.0434 | 0.0271 |
